Measured values as given in PMC7969019 (Nucleic Acids Research, 2020).
Where no end group is shown, it is not given here. [ ]: non-standard residue; d: D form. pT = C[C@@H](OP(=O)(O)O)[C@H](N)C(=O)O; pS = N[C@@H](COP(=O)(O)O)C(=O)O

Target: T1, human TFIIH p62 residues 1-158 (tandem PH and BSD1 domains) (human, UniProt P32780 1-158)
T1 sequence (looked up): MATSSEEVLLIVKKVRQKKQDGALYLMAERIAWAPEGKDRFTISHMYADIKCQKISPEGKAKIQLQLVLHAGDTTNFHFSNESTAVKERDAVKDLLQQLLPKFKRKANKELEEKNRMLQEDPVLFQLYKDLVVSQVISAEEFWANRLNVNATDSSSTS
Assay: NMR titration

Row | Binder | binding result
1 | EEEEESENDWEEVEELSEP (peptide, UniProt Q01831 124-142, looked up) [XPC (residues 124-142)] | binds
2 | TFIIEα (residues 378-439), acidic domain (domain or fragment, UniProt P29083 378-439, looked up) EEDEEEDDEFEEVADDPIVMVAGRPFSYSEVSQRPELVAQMTPEEKEAYIAMGQRMFEDLFE | binds
3 | DDLML[pS]PDDIEQWF[pT]EDPGPDE (peptide, UniProt P04637 41-62, looked up) [Ser46- and Thr55-phosphorylated p53 (residues 41-62)] | binds
4 | AEEDEDDEDFVEVPEKEGYEP (peptide, UniProt Q2YD98 399-419, looked up) [UVSSA (residues 399-419)] | binds
